Source: PMC6851490, “Target highlights in CASP13: Experimental target structures through the eyes of their authors” (Proteins, 2019)

Experiments:
[1] = target: Afp8, needle protein of the antifeeding prophage (AFP) (Serratia entomophila); assay: cryo-EM structure; needle of the AFP particle, threefold symmetric, 3.4 Å, PDB 6RBK
Bd2924 = target: T1, Bd2924 (Bdellovibrio bacteriovorus, UniProt Q6MJ59); assay: X-ray crystal structure, […] Å; format: binding; settings: without C10-CoA; one FAD per monomer at the dimer interface
T1 construct: crystal structure residues 3 to 505; homo-tetramer (dimer of dimers)
T1 sequence (Q6MJ59 3-505): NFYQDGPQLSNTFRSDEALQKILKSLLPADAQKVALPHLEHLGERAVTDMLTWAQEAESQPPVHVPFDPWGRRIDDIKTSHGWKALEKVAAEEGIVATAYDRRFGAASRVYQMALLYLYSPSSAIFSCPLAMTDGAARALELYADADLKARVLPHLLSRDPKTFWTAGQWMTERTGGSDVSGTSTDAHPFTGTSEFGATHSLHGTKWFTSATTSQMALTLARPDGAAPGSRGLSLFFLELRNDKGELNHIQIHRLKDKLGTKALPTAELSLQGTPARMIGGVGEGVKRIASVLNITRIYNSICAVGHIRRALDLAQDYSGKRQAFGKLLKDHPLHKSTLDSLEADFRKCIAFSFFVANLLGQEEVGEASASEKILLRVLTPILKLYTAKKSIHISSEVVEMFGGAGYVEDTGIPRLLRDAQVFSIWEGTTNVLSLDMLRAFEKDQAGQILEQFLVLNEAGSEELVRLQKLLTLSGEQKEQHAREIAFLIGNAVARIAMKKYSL

[2] = target: Bd2924, putative acyl-CoA dehydrogenase (ACAD) from B. bacteriovorus (B. bacteriovorus); assay: SEC; Bd2924 in solution, size exclusion chromatography
[3] = target: Bd2924, putative acyl-CoA dehydrogenase (ACAD) from B. bacteriovorus (B. bacteriovorus); assay: crystal structure; Bd2924 with FAD, with and without C10-CoA, PDB 6SD8 and 6SDA
[4] = target: gp37 (distal part) of the Salmonella phage S16 long tail fiber (Salmonella phage S16); assay: crystal structure; distal part of gp37 connected to gp38, phage S16, PDB 6F45, 1.70 Å
[5] = target: CdiI^Kp342 immunity protein (Klebsiella pneumoniae 342); assay: crystal structure; CdiA-CT•CdiI complex from K. pneumoniae 342, PDB 6CP9, 2.55 Å
[6] = target: Pentafunctional AROM complex from Chaetomium thermophilum (Chaetomium thermophilum); assay: crystal structure; CtAROM, X-ray, 3.00 Å, no PDB id
[7] = target: Pentafunctional AROM complex from Chaetomium thermophilum (Chaetomium thermophilum); assay: not stated; CtAROM before crystallisation; homodimer of about 340 kDa; method not given
[8] = target: Afp7, tube initiator of the antifeeding prophage (AFP) (Serratia entomophila); assay: cryo-EM structure; needle of the AFP particle, threefold symmetric, 3.4 Å, PDB 6RBK
[9] = target: Afp16, cap protein of the antifeeding prophage (AFP) (Serratia entomophila); assay: cryo-EM structure; apical end cap of the AFP particle in the extended state, sixfold symmetric, 3.3 Å, PDB 6RAP
[10] = target: the molecule itself; assay: crystal structure; recombinant AxlA with cleaved xyloglucan oligosaccharide, PDB 6DRU, 2.7 Å; quaternary assembly examined with EPPIC
[11] = target: the molecule itself; assay: crystal structure; MAJIN-TERB2 core complex, PDB 6GNX, X-ray, 2.90 Å

**Q.** With “Afp8, needle protein of the antifeeding prophage (AFP) (natural protein)” as the molecule, how does the stoichiometry N [1] read?
**A.** 3

**Q.** For `Cc1cc2nc3c(=O)[nH]c(=O)nc-3n(C[C@H](O)[C@H](O)[C@H](O)COP(=O)(O)OP(=O)(O)OC[C@H]3O[C@@H](n4cnc5c(N)ncnc54)[C@H](O)[C@@H]3O)c2cc1C` [FAD], which “X-ray crystal structure, 1.51 Å” value (Bd2924) is on record?
**A.** A single FAD molecule binds per monomer in a crevice located at the dimer interface

**Q.** Which results are given for “Bd2924, putative acyl-CoA dehydrogenase (ACAD) from B. bacteriovorus (enzyme)”?
**A.** stoichiometry N [2]: 4; stoichiometry N [3]: 4

**Q.** With “gp37 (distal part) of the Salmonella phage S16 long tail fiber (domain or fragment)” as the molecule, how does the stoichiometry N [4] read?
**A.** 3

**Q.** For “CdiI^Kp342 immunity protein (natural protein)”, which stoichiometry N [5] is on record?
**A.** 2

**Q.** What does the source list for “Pentafunctional AROM complex from Chaetomium thermophilum (enzyme)”?
**A.** stoichiometry N [6]: 2; stoichiometry N [7]: 2

**Q.** Which stoichiometry N [8] does the source give for “Afp7, tube initiator of the antifeeding prophage (AFP) (natural protein)” here?
**A.** 6

**Q.** Which stoichiometry N [9] does the source give for “Afp16, cap protein of the antifeeding prophage (AFP) (natural protein)” here?
**A.** 6

B1: α-xylosidase from Aspergillus niger (AxlA), glycoside hydrolase family 31 (enzyme, UniProt G3XMN9 19-736, looked up)
chain: TYFAPNSTGLRIQHGFETILIQPFGYDGFRVRAWPFRPPSGNEISFIYDPPIEGYEDTAHGMSYDTATTGTEPRTLRNGNIILRTTGWGGTTAGYRLSFYRVNDDGSETLLTNEYAPLKSLNPRYYYWPGPGAEFSAEFSFSATPDEQIYGTGTQQDHMINKKGSVIDMVNFNSYIPTPVFMSNKGYAFIWNMPAEGRMEFGTLRTRFTAASTTLVDYVIVAAQPGDYDTLQQRISALTGRAPAPPDFSLGYIQSKLRYENQTEVELLAQNFHDRNIPVSMIVIDYQSWAHQGDWALDPRLWPNVAQMSARVKNLTGAEMMASLWPSVADDSVNYAALQANGLLSATRDGPGTTDSWNGSYIRNYDSTNPSARKFLWSMLKKNYYDKGIKNFWIDQADGGALGEAYENNGQSTYIESIPFTLPNVNYAAGTQLSVGKLYPWAHQQAIEEGFRNATDTKEGSACDHVSLSRSGYIGSQRFCSMIWSGDTTSVWDTLAVQVASGLSAAATGWGWWTVDAGGFEVDSTVWWSGNIDTPEYRELYVRWLAWTTFLPFMRTHGSRTCYFQDAYTCANEPWSYGASNTPIIVSYIHLRYQLGAYLKSIFNQFHLTGRSIMRPLYMDFEKTDPKISQLVSSNSNYTTQQYMFGPRLLVSPVTLPNVTEWPVYLPQTGQNNTKPWTYWWTNETYAGGQVVKVPAPLQHIPVFHLGSREELLSGNVF
notes: AxlA, Aspergillus niger, UniProt G3XMN9; also called T1009; source: recombinant
**Q.** With B1 as the molecule, how does the “stoichiometry N” value [10] read?
**A.** 2

B2: MAJIN (core of the human MAJIN-TERB2 complex) (domain or fragment)
chain: GSMSLKPFTYPFPETRFLHAGPNVYKFKIRYGKSIRGEEIENKEVITQELEDSVRVVLGNLDNLQPFATEHFIVFPYKSKWERVSHLKFKHGEIILIPYPFVFTLYVEMKWFHE
notes: MAJIN, human, the part in the MAJIN-TERB2 core complex; also called T0980s1; H0980 subunit A
**Q.** For B2, which “stoichiometry N” value [11] is on record?
**A.** 2
